Test results as given in the Human Domainome abundance scans (Beltran et al. 2025).
± gives the uncertainty stated by the source.

B1: POU domain, class 4, transcription factor 1, residues 266 to 347; numbered along this chain, Q01851 (parent)
chain: RELEAFAERFKQRRIKLGVTQADVGSALANLKIPGVGSLSQSTICRFESLTLSHNNMIALKPILQAWLEEAEGAQREKMNKP

Variants of: B1
Experiment: abundance fitness (aPCA) (normalised: wild type 0, dead -1); higher = more abundant; growth selection in yeast, the domain comes from the species named
Details: Homo sapiens
For RELEAFAERFKQRRIKLGVTQADVGSALANLKYPGVGSLSQSTICRFESLTLSHNNMIALKPILQAWLEEAEGAQREKMNKP, the abundance fitness was -0.21 ± 0.053. In the case of RELEAFAERFKQRRIKLGVTQADVGSALANLKIPGVGSLSQSTICRFESLTCSHNNMIALKPILQAWLEEAEGAQREKMNKP, the abundance fitness is reported as -0.351 ± 0.079. In the case of RELEAFAERFKQRRIKLFVTQADVGSALANLKIPGVGSLSQSTICRFESLTLSHNNMIALKPILQAWLEEAEGAQREKMNKP, the abundance fitness is reported as -0.663 ± 0.32. For RELEAFAERFKQRRIKLGVTQADVGSLLANLKIPGVGSLSQSTICRFESLTLSHNNMIALKPILQAWLEEAEGAQREKMNKP, the abundance fitness was -0.288 ± 0.06. With RELEAFAERFKQRRIKLGVTQADVGSALANLKIPGVGSLPQSTICRFESLTLSHNNMIALKPILQAWLEEAEGAQREKMNKP the abundance fitness was -0.15 ± 0.066. For RELEAFAEIFKQRRIKLGVTQADVGSALANLKIPGVGSLSQSTICRFESLTLSHNNMIALKPILQAWLEEAEGAQREKMNKP, the abundance fitness was -0.004 ± 0.29. Variant RELEAFAETFKQRRIKLGVTQADVGSALANLKIPGVGSLSQSTICRFESLTLSHNNMIALKPILQAWLEEAEGAQREKMNKP has an abundance fitness of 0.058 ± 0.12. Work on RELEAFAEEFKQRRIKLGVTQADVGSALANLKIPGVGSLSQSTICRFESLTLSHNNMIALKPILQAWLEEAEGAQREKMNKP yielded an abundance fitness of -0.019 ± 0.064. Work on RELEAFAERFKQRRIKLGVTKADVGSALANLKIPGVGSLSQSTICRFESLTLSHNNMIALKPILQAWLEEAEGAQREKMNKP yielded an abundance fitness of 0.062 ± 0.092. RELEAFAERFKQRRIKLGVTQADVGSALANLKIPGVGSLSQSTICRFESLTLSHNNMIALQPILQAWLEEAEGAQREKMNKP showed an abundance fitness of 0.018 ± 0.074. Variant RELEAFAERFKQRRIKLGVTQADVGSALANLKIPGVGSWSQSTICRFESLTLSHNNMIALKPILQAWLEEAEGAQREKMNKP has an abundance fitness of -0.169 ± 0.046. RWLEAFAERFKQRRIKLGVTQADVGSALANLKIPGVGSLSQSTICRFESLTLSHNNMIALKPILQAWLEEAEGAQREKMNKP showed an abundance fitness of -0.508 ± 0.038. RELEAFAERFKQRRIKLGVTQADVGSAFANLKIPGVGSLSQSTICRFESLTLSHNNMIALKPILQAWLEEAEGAQREKMNKP gave an abundance fitness of -0.129 ± 0.045. Variant RELEAFAERFKQRRIKLGVTQADVGSALANLKIPGVGSLSQSTICRFESLTLSHNNMIALKPILQAWLEEAEGAQREKMPKP has an abundance fitness of 0.073 ± 0.058. Work on RELEAFAERFKQRRIKLGVTQADVGSALANLKIPGVGSLSQSTICRFESLTLAHNNMIALKPILQAWLEEAEGAQREKMNKP yielded an abundance fitness of -0.039 ± 0.043. RELEAFAERFKQRRIKLGVTQADVGSALANLKIPGVGSLSQSTICRFESLTLSLNNMIALKPILQAWLEEAEGAQREKMNKP showed an abundance fitness of 0.046 ± 0.04. Work on RELEAFAERFKQRRIKLGVTQADVGSALANLKIPGVGSLSQSTICRFESLTLSENNMIALKPILQAWLEEAEGAQREKMNKP yielded an abundance fitness of 0.058 ± 0.047. RELEAFAERFKQRRIKLGVTQADVGSALANLKIPGVGSLSQSTICRFESLTLSHANMIALKPILQAWLEEAEGAQREKMNKP gave an abundance fitness of 0.023 ± 0.041. RELEAFAERFKQRRIKLGVTQADVGSALANLKIQGVGSLSQSTICRFESLTLSHNNMIALKPILQAWLEEAEGAQREKMNKP gave an abundance fitness of -0.027 ± 0.039. Work on RELEAFAERFKQRRIKLGVTQADVGSALANLKIPGVGSLSQSTICRFELLTLSHNNMIALKPILQAWLEEAEGAQREKMNKP yielded an abundance fitness of -0.181 ± 0.03. RELEAFAERFKQRRIKLGVTQADVGSALANLKIPGVGSLSQSVICRFESLTLSHNNMIALKPILQAWLEEAEGAQREKMNKP showed an abundance fitness of -0.031 ± 0.045. Work on RELEAFAERFKQRRIKLGVTQADVGSALANLKIPGVGSLSQSTICRFESLTLSHNNMIALKPILQAWLETAEGAQREKMNKP yielded an abundance fitness of -0.026 ± 0.035. Work on RELEAFAERFKQRRIKLGVTQADVGSALANLTIPGVGSLSQSTICRFESLTLSHNNMIALKPILQAWLEEAEGAQREKMNKP yielded an abundance fitness of 0.025 ± 0.076. Work on RELEAFAERFKQRRIKLGVTQADVGSALANLKIPGVGSLSQSTICKFESLTLSHNNMIALKPILQAWLEEAEGAQREKMNKP yielded an abundance fitness of 0.005 ± 0.089. With RELEAFAERFKQRRIKLGVTQADVGSALANLKIPGVGSLSQSTICRFESLTLSHNNMIALKPILQAFLEEAEGAQREKMNKP the abundance fitness was 0.018 ± 0.15. Variant RELEAFAERFKQRRIKLGVTQADVGSALANLKIPGVGSLSQSTICRFESLTLSHNNMIALKPILQAWLVEAEGAQREKMNKP has an abundance fitness of -0.073 ± 0.043. For RELEAFAERFKQRRIKLGVTQADVGSALANLKIPGVGSLSQSTICRFDSLTLSHNNMIALKPILQAWLEEAEGAQREKMNKP, the abundance fitness was -1 ± 0.09. For RELEAFAERFKQRRIKLGVTQADVGSALANLKIPGVGSLSQSTICRFKSLTLSHNNMIALKPILQAWLEEAEGAQREKMNKP, the abundance fitness was -0.823 ± 0.091. In the case of RELEAFAERFKQRRIKLGHTQADVGSALANLKIPGVGSLSQSTICRFESLTLSHNNMIALKPILQAWLEEAEGAQREKMNKP, the abundance fitness is reported as -0.14 ± 0.11. RELEAFAERFKQRRIKLGVTQADVGSALANLKIPGVGSLSQSTICRFESLGLSHNNMIALKPILQAWLEEAEGAQREKMNKP gave an abundance fitness of -0.021 ± 0.039. Work on RELEAFAERFKQRRIKLGVTQADVGSALANLKIPGVGSLSQSTICRFESLALSHNNMIALKPILQAWLEEAEGAQREKMNKP yielded an abundance fitness of -0.015 ± 0.034. RELEAFAERFKQRRIKLGVTQADVGSALANLKIPGVGSLSQSTICRFESLYLSHNNMIALKPILQAWLEEAEGAQREKMNKP showed an abundance fitness of -0.368 ± 0.05. RELEAFAERFKQRRIKLGVTQADVGSALANLKIPGVGSLSQSTICRFESLMLSHNNMIALKPILQAWLEEAEGAQREKMNKP showed an abundance fitness of -0.004 ± 0.044. For RELEAFAERFKQRRIKLGVTQADVGSALANLKIPGVGSLSQSTICRFESLTLSHNNMVALKPILQAWLEEAEGAQREKMNKP, the abundance fitness was -0.035 ± 0.048.
